From patent US20230330253A1 (LANOVA MEDICINES, published 2023)

These binders were tested against human claudin 18.2 (CLDN18.2) (human) (assay: cell-based or functional assay).

Binder	Fluorescence, pHAb internalization on MKN45-CLDN18.2 cells, 20 nM antibody, normalized by DAR	Fluorescence, pHAb internalization on MKN45-CLDN18.2 cells, 100 nM antibody, normalized by DAR
113G12E5E6 chimeric antibody (antibody, V domains shown) VH: QVQLKQSGPGLVQPSQSLSITCTVSDFSLTKYGVHWFRQSPGKGLEWLGVIWTGGNTDYNPALIPRLSFRKDNSKSQVFFKMNSLQSSDTAVYYCARNGYYGNAMDYWGQGTSVTVSS VL: DIVMTQSPSSLTVTAGERVTMSCKPSQSLLNSGNQKNYLAWYQQKPGQPPKLLLYWASTRESGVPDRFKGSGSGTDFTLTISSVQAEDLAVYYCQNAYFYPCTFGGGTKLEMK	11000	28900
105F7G12 chimeric antibody (antibody, V domains shown) VH: QVQLKQSGPGLVQPSQSLSITCTVSDFSLTKYGVHWFRQSPGKGLEWLGVIWTGGNTDYNPALIPRLSFRKDNSKSQVFFKMNSLQSSDTAVYYCARNGYYGNAMDYWGQGTSVTVSS VL: DIVMTQSPSSLTVTAGERVTMSCKSSQSLLNSGNQKNYLAWYQQKPGQPPKLLLYWASTRESGVPDRFKGSGSGTDFTLTISSVQAEDLAVYYCQNAYFYPCTFGGGTKLEMK	14800	43100
56E8F10F4 chimeric antibody (antibody, V domains shown) VH: DVQLVESGGGLVQPGGSRKLSCTASGFTFNSFGMNWVRQAPEKGLEWVAFISGGSNTIHYLDTVKGRFTISRDNPKNTLFLQMTSLRSEDTAMYYCTRLALGNAMDYWGQGTSVIVSS VL: DIVMTQSPSSLTVTAGEKVTMSCKSSQSLLNSGNQKNYLTWYQQKPGQPPKLLIYWASTRESGVPDRFTGSGSGTYFTLTISSVQAADLAVYYCQNDYYFPFTFGSGTKLEIK	19900	28700
15C2B7 chimeric antibody (antibody, V domains shown) VH: QIQLVQSGPELRKPGETVKISCKASGYTFTNYGMNWVKQAPGKGLKWMAWINANTGEPTYAEEFKGRFAFSLETSARSAYLQINSLKNEDTATYFCARLTRGNSFDYWGQGTTLTVSS VL: DIVMTQSPSSLTVTAGGKVTVSCKSSQSLLNSGNQKNYLTWYQQKPGQPPKLLIYWASTRESGVPDRFTGSGSGTDFTLTISSVQTEDLAVYYCQNNYYFPLTFGAGTKLELK	19400	33200
10G7G11 chimeric antibody (antibody, V domains shown) VH: QVQLKESGPGLVAPSQSLSITCTISGFSLNTYGVHWVRQPPGKGLEWLVVMLSDGNTVYNSSLKSRLSLTKDNSKSQLLLKMNSLQTDDTAIYYCARHKAYGNAMDYWGQGTSVTVSS VL: DIVMTQSPSSLTVTAGEKVTMTCKSSQSLFNSGNQRNYLTWYQRKPGQPPKLLIYWASTRESGVPDRFTGSGSGTYFTLTVSSVQAEDLAVYYCQNAYYFPFTFGSGTKLEKK	9600	35500
58G2C2 chimeric antibody (antibody, V domains shown) VH: QVHLQQSGAEVVRPGTSVKVSCKASGYAFTNYLIEWIKKRPGQGLEWVGVINPGRSGTNYNEKFKGKATLTADKSSSTAYMQLSSLTSDDSAVYFCARTRYGGNAMDYWGQGTSVTVSS VL: DIVMTQSPSSLTVTAGEKVTMSCKSSQSLLNSGNQKNYLTWYQQKPGQPPTLLIFWAFTRESGVPDRFTGSGSGTDFTLTINSVQAEDLAVYYCQNSYSYPFTFGSGTKLEIK	18600	33100
103F4D4 chimeric antibody (antibody, V domains shown) VH: QVQLQQSGAELARPGASVKMSCKASGYTFPTYSIHWLKQGPGQGLEWIGYINPSTIYTNYNQKFKYKATLTADKSSSTAYIQLSSLTSDDSAVYYCAREGYGRGNAMDYWGQGTSVTVSS VL: DIVMTQSPSSQTVTAGEKVTLSCRSSQSLLNGGNQKNYLTWYQQKPGQPPKLLIYWASTRESGVPDRFTGSGSGTYFTFTISSVQAEDLAVYYCQNAYFYPFTFGAGTKLELK	31200	49100
119G11D9 chimeric antibody (antibody, V domains shown) VH: EVQLQQSGPELVKPGASVKMSCKASGYTFTGFLMHWVKQKPGQGLEWIGYINPYNDGTKYSEKFKGKATLTSDKSSSTAFMELSSLTSDDSAVYYCARLDYGNAMDYWGQGTSVTVSS VL: DIVMTQSPSSLTVTAGERVTMRCRSTQSLFNSGNQKNYLTWYQQKPGQPPKLLIYWASTRESGVPDRFTGGGSGTDFTLTISSVQAEDLAVYYCQNAYYYPLTFGAGTKLERK	21400	34000
84E9E12 chimeric antibody (antibody, V domains shown) VH: DVQLQESGPGLVKPSQSLSLSCSVTGYSITSGYFWTWFRQFPGNKLEWMGYISYDGSNNYNPSLKNRISITRDTSKNQFFLKLNSVTTEDTATYYCASFRFFAYWGQGTLVTVSA VL: DIVMTQSPSSLTVTTGEKVTMSCKSSQSVFNSGNQKNYLTWYQQKPGQPPKLLVYWASTRESGVPARFTGSGSGTVFTLTISSVQAEDLAVYYCQNDYYFPLTFGAGTRLELK	18700	35100
20F1E10 chimeric antibody (antibody, V domains shown) VH: QIQLVQSGPELKKPGETVKISCKASGYTFTKYGMNWVRQAPGKGLKWMGWISTNTGEPTYAEEFKGRFAFSLETSASTAFLQINNLKNEDTATYFCARLVRGNSFDFWGQGITLTVSS VL: DIVMTQSPSSLTVTAGEKVTMSCKSSQSLFNSGNQRNYLTWYQQKPGQPPKLLIYWASTRESGVPDRFTGSGSGTDFILTITKVQAEDLAVYYCQNVYSYPLTFGAGTKLELK	21100	45100
110C12B6 chimeric antibody (antibody, V domains shown) VH: EVQLQQSGPELVKPGASVKMSCKSSGYTFTGFLMHWVKQKPGQGLEWIGYINPYNDGTKYSEKFKGKATLTSDKSSSTAYMELSSLTSDDSAVYYCGRLDYGNAMDYWGQGTSVTVSS VL: DIVMTQSPSSLTVTAGEKVTMRCRSTQSLFNSGNQRNYLTWYQQKPGQPPKLLIYWASTRESGVPDRFTGSGSGTDFTLTISSVQAEDLAVYYCQNAYYYPLTFGVGTKLERK	19300	40100
116A8B7 chimeric antibody (antibody, V domains shown) VH: EVQLQQSGPELVKPGASVKMSCKSSGYTFTGFLMHWVKQKPGQGLEWIGYINPYNDGTKYSEKFKGKATLTSDKSSSTAYMELSSLTSDDSAVYYCGRLDYGNAMDYWGQGTSVTVSS VL: DIVMTQSPSSLTVTAGEKVTMRCRSTQSLFNSGNQRNYLTWYQQKPGQPPKLLIYWASTRESGVPDRFTGSGSGTDFTLTISSVQAEDLAVYYCQNAYYYPLTFGVGTKLERK	21400	41700
78C10B6G4 chimeric antibody (antibody, V domains shown) VH: QVQLKESGPGLVAPSQSLSITCTVSGFSLINYGVSWVRQPPGKGLEWLGVIRGDGNTNYQSALRSRLSIRKDTSKSQVFLKLNSVHTDGTATYYCAKVGRGNAMDHWGQGISVIVSS VL: DIVMTQSPSSLTVTAGEKVTMSCKSSQSLLNSGNQKNYLTWYQQRPGQPPKLLIYRASSRESGVPVRFTGSGSGTDFTLTISSVQAEDLAVYYCQNDYIYPYTFGGGTKLEMN	16200	29100
44F6B11 chimeric antibody (antibody, V domains shown) VH: EVQLVESGGDLVKPGGSLKLSCAASGFTFSNYGMSWVRQTPDKRLEWVATFSYGDSHNYYSDSVKGRFTISRDIAKDALYLQMSSLRSEDTAIYYCARFGRGNTMDYWGQGTSVTVSL VL: DIVMTQSPSSLTVTAGEKVIMSCKSNQSLLNSGNQKKYLTWYQQKPGQSPKLLIYWASTRESGVPDRFTGSESGTDFTLTISSVRAEDLAVYYCQNGYSYPFTFGSGTKLEMK	18400	26100
103A10B2 chimeric antibody (antibody, V domains shown) VH: QVQLKESGPGLVAPSQSLSITCTVSGLSLTSFGVHWIRQPPGKGLEWLGVIWAGGSTNYNSALMSRLSISKDNSKSQVYLKMHSLQTDDTAMYYCARSLYGNSFDYWGQGTALTVSS VL: DIVMTQSPSSLTVTPGEKVTMSCRSSMSLFNSGNQKSYLSWYHQKPGQPPKLLIYWASTRDSGVPVRFTGSGSGTDFTLTISSVQAEDLAVYYCHNDYIYPLTFGAGTKLELK	12000	31300
65G8B8 chimeric antibody (antibody, V domains shown) VH: QVQLKESGPGLVAPSQSLSITCTVSGFSLTSYGVSWVRQPPGKGLEWLGVIWGDGNTIYHSALKSRLSISRDNSKRQVFLKVNSLQIDDTATYYCAKQGLYGHAMDYWGQGTSVIVSS VL: DIMMTQSPSSLTVTTGEKVTLTCKSSQSLLNSGNLKNYLTWYQQKPGHPPKLLIYWASTRESGVPVRFTGSGSGTDFTLTISSVQAEDLTVYYCQNVYIYPFTFGSGTKLEMR	15100	20500
85H12E8 chimeric antibody (antibody, V domains shown) VH: QVQLKESGPGLVAPSQSLSITCTVSGFSLSNYGVSWVRQPPGKGLEWLGVIWAGGNTNYNSALMSRLRISKDNSKSQVFLKMNSLQTDDTARYYCARHGYGKGNAMDNWGQGTSVTVSS VL: DIVMTQSPSSLTVTAGEKVTMNCKSSQSLLNSGNQRNYLSWYQQEPGQPPKLLIYWASTRESGVPDRFTGSGSGTDFTLTISNIQAEDLALYFCQNAYFYPFTFGSGTKLEIK	19700	29100
101C4F12 chimeric antibody (antibody, V domains shown) VH: QVQLKESGPGQVAPSQSLSIACTVSGFSLSSYGVHWVRQPPGKGLEWLGVIWAGGSTNYDSALMSRLTISKDNSRTRVFLKMNSLQTDDTAIYYCARSLYGNSLDSWGPGTTLTVSS VL: DIVMTQSPSSLTVTAGEKVTMSCKSSQSLLNSGNQRNYLTWYQQKPGQPPRLLIYWSSTRDSGVPDRFTGSGSRTDFTLTISSVQAEDLAVYYCQNNFIYPLTFGAGTKLELK	15200	44400
